Experimental data: US20240115497A1, “INHALABLE PHARMACEUTICAL POWDER FORMULATION AND PREPARATION METHOD THEREFOR” (ZHEJIANG CUIZE PHARMACEUTICAL TECHNOLOGY CO., LTD., priority 2021, published 2024)

Tests used:
[1] = Specific surface area by inverse gas chromatography-surface energy analyzer; format: physicochemical
Excerpt: The specific surface areas of the bulk drug semaglutide, excipient leucine and powder formulation were respectively detected by an inverse gas chromatography-surface energy analyzer.

[2] = injectable and oral formulations; cited from earlier work

Compound: Semaglutide [Bulk drug semaglutide]
- Specific surface area [1]: 1.816 m^2/g
- bioavailability [2]: about 1%

Compound: CC(C)C[C@H](N)C(=O)O [Excipient leucine, leucine]
- Specific surface area [1]: 0.506 m^2/g
